Literature values in paper PMC5244385.

Biological target: Fibrinogen (Homo sapiens) (UniProt P02671)
UniProt P02671, sequence (P02671 36-866, chain 1 of 3): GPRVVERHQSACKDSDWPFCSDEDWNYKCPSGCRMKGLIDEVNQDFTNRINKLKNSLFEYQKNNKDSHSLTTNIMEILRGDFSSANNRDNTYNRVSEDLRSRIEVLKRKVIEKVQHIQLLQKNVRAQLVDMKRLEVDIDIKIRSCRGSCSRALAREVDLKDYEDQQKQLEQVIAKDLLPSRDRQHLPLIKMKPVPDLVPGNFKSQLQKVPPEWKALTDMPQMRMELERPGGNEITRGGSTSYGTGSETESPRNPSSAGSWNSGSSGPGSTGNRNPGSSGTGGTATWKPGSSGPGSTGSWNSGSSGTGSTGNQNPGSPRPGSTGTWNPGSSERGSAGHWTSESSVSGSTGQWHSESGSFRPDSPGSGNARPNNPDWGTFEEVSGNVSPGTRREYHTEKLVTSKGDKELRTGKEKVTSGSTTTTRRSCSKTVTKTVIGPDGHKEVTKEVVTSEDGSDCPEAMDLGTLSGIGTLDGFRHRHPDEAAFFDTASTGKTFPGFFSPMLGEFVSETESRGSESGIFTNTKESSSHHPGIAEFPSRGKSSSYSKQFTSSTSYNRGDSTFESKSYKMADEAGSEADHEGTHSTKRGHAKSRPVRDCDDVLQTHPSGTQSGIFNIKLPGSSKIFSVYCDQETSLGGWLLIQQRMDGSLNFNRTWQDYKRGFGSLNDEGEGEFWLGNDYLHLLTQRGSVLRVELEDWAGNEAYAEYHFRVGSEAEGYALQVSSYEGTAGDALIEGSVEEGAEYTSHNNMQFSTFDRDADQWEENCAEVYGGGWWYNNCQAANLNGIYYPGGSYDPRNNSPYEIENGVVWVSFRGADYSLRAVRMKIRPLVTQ
UniProt P02671, sequence (P02675 45-491, chain 2 of 3, further chain): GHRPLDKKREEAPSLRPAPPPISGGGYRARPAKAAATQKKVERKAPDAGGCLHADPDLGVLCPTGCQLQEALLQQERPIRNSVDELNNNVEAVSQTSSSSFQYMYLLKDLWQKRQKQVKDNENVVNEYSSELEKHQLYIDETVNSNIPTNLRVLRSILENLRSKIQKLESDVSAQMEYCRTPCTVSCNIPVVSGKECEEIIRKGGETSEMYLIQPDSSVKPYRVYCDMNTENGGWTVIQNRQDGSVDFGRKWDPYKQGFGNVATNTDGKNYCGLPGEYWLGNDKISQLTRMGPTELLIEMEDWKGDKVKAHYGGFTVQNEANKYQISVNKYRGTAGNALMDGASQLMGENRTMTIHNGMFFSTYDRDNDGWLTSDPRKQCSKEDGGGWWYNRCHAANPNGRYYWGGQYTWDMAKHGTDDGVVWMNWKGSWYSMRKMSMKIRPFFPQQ
UniProt P02671, sequence (P02679 27-453, chain 3 of 3, further chain): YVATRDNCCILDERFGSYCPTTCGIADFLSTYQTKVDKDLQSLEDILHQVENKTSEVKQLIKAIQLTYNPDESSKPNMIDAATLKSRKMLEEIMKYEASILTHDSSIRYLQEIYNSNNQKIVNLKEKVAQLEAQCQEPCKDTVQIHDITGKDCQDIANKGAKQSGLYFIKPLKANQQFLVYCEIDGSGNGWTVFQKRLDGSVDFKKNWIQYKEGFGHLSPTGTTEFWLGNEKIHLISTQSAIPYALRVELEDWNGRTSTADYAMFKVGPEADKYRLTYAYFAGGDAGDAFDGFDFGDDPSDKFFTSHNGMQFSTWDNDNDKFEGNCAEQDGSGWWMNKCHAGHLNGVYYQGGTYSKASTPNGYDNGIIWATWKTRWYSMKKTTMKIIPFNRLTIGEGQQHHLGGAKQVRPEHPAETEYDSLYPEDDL

With Clumping factor A (from UniProt Q53653) as the substance, how does the Kd read?
Its Kd is 510 nM.
